Assay results taken from the DeepSol protein solubility set.

test: soluble on expression in E. coli; label from the status in PepcDB or PDB records

Sequence	soluble on expression in E. coli
MARGMNHVYLIGALARDPELRYTGNGMAVFEATVAGEDRVIGNDGRERNLPWYHRVSILGKPAEWQAERNLKGGDAVVVEGTLEYRQWEAPEGGKRSAVNVKALRMEQLGTQPELIQDAGGGVRMSGAMNEVLVLGNVTRDPEIRYTPAGDAVLSLSIAVNENYQDRQGQRQEKVHYIDATLWRDLAENMKELRKGDPVMIMGRLVNEGWTDKDGNKRNSTRVEATRVEALARGAGNANSGYAAATPAAPRTQTASSAARPTSGGYQSQPSRAANTGSRSGGLDIDQGLDDFPPEEDDLPF	soluble
MSLTDVLTATYELYLAEGESPEGKARGIALEQTVEMPADCLPGDIAERMVGRIRTLEPRADHWVLEIDYPLAAIGGELTQCLNLLFGNISLQSGIRLVQVAWPPSLLRRWGGPGLGVSGLRARLDVGARPLLCAALKPMGLSAPALAARCAAFARGGVDLIKDDHGLADQPDAPFAERLNACQDAVRQANRRSGGRSLYLPNVTAAPQALGERLAAARDAGCEMVLISPWLTGLETLRWARDEYGLALMAHPAMTGGLFLPRHGISPALLLGELFRIAGADAVIYPNVGGRFRFSADTCQAINHALRRPLEGLASAWPTPGGGVDVKRAGHWKQAYGPDTILLIGGSLYAQGDIEAASRALMQAIRDEGHHHHHH	soluble
SGSSEDQAYRLLNDYANGFMVSQVLFAACELGVFDLLAEAPGPLDVAAVAAGVRASAHGTELLLDICVSLKLLKVETRGGKAFYRNTELSSDYLTTVSPTSQCSMLKYMGRTSYRCWGHLADAVREGRNQYLETFGVPAEELFTAIYRSEGERLQFMQALQEVWSVNGRSVLTAFDLSVFPLMCDLGGDFFKDPLPEADLYILARVLHDWADGKCSHLLERIYHTCKPGGGILVIESLLDEDRRGPLLTQLYSLNMLVQTEGQERTPTHYHMLLSSAGFRDFQFKKTGAIYDAILARK	soluble
MGSDKIHHHHHHMMETTQFNPIQLKRARVARGKTMKVLAEETGISRQMISNYELGKTVPSGLNLVKLISVLNFPKNYFSATQASNLHGATFFRSQNAATKRARDMQSVRLSFQNDIYTTLSQYVNFPKVDLPESLDMDVDDITNDNIKFMAMRVRDQWDLGTKTPIENLIQTAEIHGIVVVKTNMTNDKLDAVSEIIEGRPFIMLTDNGESAVRRRFNVAHELGHIVLHAGIESIHDFTSQQLKNTIERQANLFASTFLMPDDAFVESLLSTSLDYYIKLKQYWKASIQSMIYKTYQLGLINDDQKLYLNKKISWNKWRKIEPLDNILEIENPTLFGKVFNMIIDHKVVSQADLLSELKLPFDELECSLGIQLATQKNISEPKLRLL	not soluble
KVLKIPREKIIEKGFTDPREYFASIEVDGGRPPKPGEFRDILVETVREVMGVEVVEAGLSKEEKIIWDRYKEMLTSSRFKMRRSTRLFKASMPPGTRYGFAQIKYRKLVQASVAVDSEGIIRAAMITGDFQLIPADADEEIVKAILGFKHSQYGEAADRVRRLVDERGIMIIGASAEEFIKPV	soluble
MLIVGINGSPKKEGNTKYLINTVLEEAKSQGVETMVLEVGELLNSVKNPFCVVCSNPCSSICYKGTKLEEAYEILKKADAIVMGSPVYFGSVSAQLKAFFDKTRKLRSEKALYNKFACGVTVGGARFGGQETTMKALHDIMLVHGMTIVGDGYVGDDCGHHGVCAQQPADKDEFAIKRAKILGRRLVDVCKKAGA	not soluble
MGSDKIHHHHHHFRSFLMRDREKARKYVLKEIEKFGKRAFTWLFSDVVVEGSENIPKDRNFIVVANHQSLMDIPLILGFVATGAFIAKEELRKIPGVNWYIRYLNGVFLDRKNPRRAVRALREAIEKLKNGVTFIVFPEGTRSPDGKVLSFKKDSLMIAVKTGVPVLPVSIWGTYHLIPKGRWTFTPGKVFLKIHEPVDPKGFSSEEELRKYVEEVVKRGVEELKARWSK	not soluble
MSKDLVHPSLIRAGIVELEMAEETTDLINRTIESNQAHLQGEPLYVDSLPEDMSRLRIEDKSRRTKTEEEERDEGSSEEDNYLSEGQDPLIPFQNFLDEIGARAVKRLKTGEGFFRVWSALSDDIKGYVSTNIMTSGERDTKSIQIQTEPTASVSSGNESRHDSESMHDPNDKKDHTPDHDVVPDIESSTDKGEIRDIEGEVAHQVAESFSKKYKFPSRSSGIFLWNFEQLKMNLDDIVKAAMNVPGVERIAEKGGKLPLRCILGFVALDSSKRFRLLADNDKVARLIQEDINSYMARLEEAE	soluble
MSLTTVLGIETSCDETGVGIARLDPDGTVTLLADEVASSVDEHVRFGGVVPEIASRAHLEALGPAMRRALAAAGLKQPDIVAATIGPGLAGALLVGVAAAKAYSAAWGVPFYAVNHLGGHLAADVYEHGPLPECVALLVSGGHTHLLHVRSLGEPIIELGSTVDDAAGEAYDKVARLLGLGYPGGKALDDLARTGDRDAIVFPRGMSGPADDRYAFSFSGLKTAVARYVESHAADPGFRTADIAAGFQEAVADVLTMKAVRAATALGVSTLLIAGGVAANSRLRELATQRCGEAGRTLRIPSPRLCTDNGAMIAAFAAQLVAAGAPPSPLDVPSDPGLPVMQGQVEGHHHHHH	soluble
MTSYEEETDYRNVPRELLDNNIPMGRGMIKWAPFATLPEQFETIQQYIIDQNKITRPVLSDDQLAELNIRLHEALQYAQPVEVKFYNNGFVDSVRLTIYRIDAINYEIDGYVYNQQQRQKISIFDILDIVLLPLEHHHHHH	soluble
GSLYNDGNRDQRNFGRNQRNNNSNRYRNSRFNSRPRTRSREDDDEVHFDKTTFSKLIHVPKEDNSKEVTLDSLLEEGVLDKEIHKAITRMEFPGLTPVQQKTIKPILSSEDHDVIARAKTGTGKTFAFLIPIFQHLINTKFDSQYMVKAVIVAPTRDLALQIEAEVKKIHDMNYGLKKYACVSLVGGTDFRAAMNKMNKLRPNIVIATPGRLIDVLEKYSNKFFRFVDYKVLDEADRLLEIGFRDDLETISGILNEKNSKSADNIKTLLFSATLDDKVQKLANNIMNKKECLFLDTVDKNEPEAHERIDQSVVISEKFANSIFAAVEHIKKQIKERDSNYKAIIFAPTVKFTSFLCSILKNEFKKDLPILEFHGKITQNKRTSLVKRFKKDESGILVCTDVGARGMDFPNVHEVLQIGVPSELANYIHRIGRTARSGKEGSSVLFICKDELPFVRELEDAKNIVIAKQEKYEPSEEIKSEVLEAVTEEPEDISDIVISLISSYRSCIKEYRFSERRILPEIASTYGVLLNDPQLKIPVSRRFLDKLGLSRSPIGKAMFEIRDY	soluble
MGVKRKKMGKVAGFTEWTAEDLEAFRARWPIGTAQRLALELYQWTGARCVDVIRLGPQMVGRDGVLTYVQQKTGNPAHVPWTCPAFGLEEQRADLMRCLPVGSPVYMLTEYGKPRTQKGVSQWFSAAAREAGLESRTAHGLRKYRMNALAEHGASVLVMQSWVGHTTLLEVQEYTRRADRRRVISGGHPVKRDPAGAAAALEHHHHHH	soluble
MSLSYTTQQIIEKLRELKIVPVIALDNADDILPLADTLAKNGLSVAEITFRSEAAADAIRLLRANRPDFLIAAGTVLTAEQVVLAKSSGADFVVTPGLNPKIVKLCQDLNFPITPGVNNPMAIEIALEMGISAVKFFPAEASGGVKMIKALLGPYAQLQIMPTGGIGLHNIRDYLAIPNIVACGGSWFVEKKLIQSNNWDEIGRLVREVIDIIKEGGSHHHHHH	soluble
MSAESERKTETIPEWKQEEVDAIVEMIESYESVGVVNIAGIPSRQLQDMRRDLHGTAELRVSRNTLLERALDDVDDGLEDLNGYITGQVGLIGTDDNPFSLFQELEASKTPAPIGAGEVAPNDIVIPEGDTGVDPGPFVGELQSVGADARIQEGSIQVLSDSTVLDTGEEVSQELSNVLNELGIEPKEVGLDLRAVFADGVLFEPEELELDIDEYRSDIQAAAGRAFNLSVNADYPTATTAPTMLQSDRGNAKSLALQAAIEDPEVVPDLVSKADAQVRALASQIDDEEALPEELQGVEADVATEEPTDDQDDDTASEDDADADDAAEEADDDDDDDEDAGDALGAMF	soluble
MAFSASIEDYALIGDQQSAALVARDGSIDWLCLPRFDSPACFAALLGDEHNGKWRIAPKGAGPCTRRAYRTDSLVLDSEWDTPEGTLRVTDLMPQRDSAPDLVRIVEGLRGRVTVRSAIRLRFDYGLEHHHHHH	not soluble
KVKSTFNKYSKVSSSKGMTGAMVAEQLLRSQGIYDVSIQRVSGSLTDNYNPRNKTLNLSDSVYNSTSVAAIGVAAHETGHAIQHAYGYGPLSFRTALFP	not soluble
MRRLLKEQFEAELPEDIRFYMGGKSRVYAYKSCEFDEIASHRGIYFGTIERDGLRLSIEGSFIAGKLAKKNVIELDEESFGRWMRGEDIEADVKGYCIVKHGSYFAGCGKGNGRVLRNFVPKDRRVID	not soluble
MAHHHHHHMTTERPCGERNGHTHSSSAADGTFDQPDTAVLLYGGLPPMPKPSVQRGEGSMEREFDQAAVSPSPVAAVAASSVVGGDTSPGSSPHIGVHEADDPTKNFDNSTEEEHMDLFISAMSPQNCVDRPQRRARGALMPPLPSPGEADAGAMMQSEMHTTPMTKTHTPDLRVTMYENQELRRELATVRASLRQALQTIETRELECVELHRLVDEMQAQLNGLKPEANLRPTQTDAQGNGEGSTRPEKSAFKLQATKDTTGPQIIGKYESKEEWRMTPSRELFAAEVKHDAHTEASTTTAIAAVKMNATDAPTTVEETISMGQLCEERDRLAKELAQTKIVVAEQETVLDRLGLRFPYPGALVAAARRTIPAFEPLRKSRKQKPGPLVVDRTTQMRGERAERRE	not soluble
MAGRRRWSTEQILDAAAELLLAGDAETFSVRKLAASLGTDSSSLYRHFRNKTELLRAVADRILLSAMDGYRPEGDWKQRLTAVALRLRESFGQQPQLAAVWGRHGSGGTGSRLMMEEVLQALRASGLPDDEIPARYHRLVILISSLITAEGGFGAVGAQEHEQGMEQFRVAVLGADPERFPALSHFAREIRPLGADRGAAFEEILAAHLAHLEAAAP	soluble
MGSDKIHHHHHHMLTTCKSVLKLPYLEKIKVVAGEKGLNRIITWVQVVEYPEYSKWLKGGELILISGIAIKNNINSLVNFIRDINSRSLSGIVISIGPYIKEIPKEVIEIGNQLDFPIFEIPFEVKFIDVSQSICKAIFANKVNQESMENFMKDIIFRDFTFSEDILSRAVAYGYNPKTKYISFVVELHNEKDMLECDLKTKQYIEQIVIEVLGEWNKRSIHIMQYNSIILMLPKNEKRTIKNIAMNIIEEIISKAKNTSVNIGVGGEFSELRDFKISVSEAHRCLKVLKLNNDNNTVISYDELGIYKLFFQMDNLEEMKKFYLDVLKKLIDYDSKNTTELMNTLEMYIKESTNINRTAEKLFIHRNTLKYRIRRIEEITKCSLKDVNVLFNFDTALKIKKFLTMENAV	not soluble
MKSVQEKRNNTRAFKTVAKSWFATKTTWSEDYQRSVWTRLETYLFPDIGNKDIAELDTGDLLVPIKKIEKLGYLEIAMRVKQYATAIMRYAVQQKMIRFNPAYDLEGAVQKLEHHHHHH	soluble
MTVTIKELTNHNYIDHELSATLDSTDAFEGPEKLLEIWFFPHKKSITTEKTLRNIGMDRWIEILKLVKCEVLSMKKTKELDAFLLSESSLFVFDHKLTMKTCGTTTTLFCLEKLFQIVEQELSWAFRTTQGGKYKPFKVFYSRRCFLFPCKQAAIHQNWADEVDYLNKFFDNGKSYSVGRNDKSNHWNLYVTETDRSTPKGKEYIEDDDETFEVLMTELDPECASKFVCGPEASTTALVEPNEDKGHNLGYQMTKNTRLDEIYVNSAQDSDLSFHHDAFAFTPCGYSSNMILAEKYYYTLHVTPEKGWSYASFESNIPVFDISQGKQDNLDVLLHILNVFQPREFSMTFFTKNYQNQSFQKLLSINESLPDYIKLDKIVYDLDDYHLFYMKLQKKI	soluble
MLPAVPPQQWALSAGNGSSEVEVVPFQEVWGRSYCRALERLVDVVSEYPSEVEHMFSPSCVSLLRCTGCCGDENLHCVPVETANVTMQLLKIRSGDRPSYVELTFSQHVRCECRPLREKMKPERCGDAVPRR	soluble
